The text below walks through data of article PMC6096924, “Mechanism of activation of the BNLF2a immune evasion gene of Epstein-Barr virus by Zta”.

Common to all, as to conditions: protein: recombinant; tags: His, GST (fusion); chain copies: 2; label: IR-800; blunt
In data set [1] the target is T1, His-GST-Zta (DNA binding and dimerization region) (Epstein-Barr virus, UniProt P03206 168-245). Briefly: EMSA; highest binding of the five ZREs. In general terms: In EMSA bound probe runs differently from free probe, usually more slowly.
For data set [2], the target named is T1, His-GST-Zta (DNA binding and …). Briefly: EMSA.
Data set [3] has the same target. Briefly: EMSA; CpG methylation; binding increased vs unmethylated ZRE1 (P<=0.01).

T1 sequence (P03206 168-245): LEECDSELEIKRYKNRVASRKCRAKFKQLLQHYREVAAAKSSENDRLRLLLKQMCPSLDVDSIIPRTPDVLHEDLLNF

B1: BNLF2a ZRE2 (dsDNA)
DNA 1: CACCTGTTGTTGACACATTCTTTGCGC
DNA 2: GCGCAAAGAATGTGTCAACAACAGGTG
B1: the binding result in data set [1] was “binds”.

B2: BNLF2a ZRE5 (dsDNA)
DNA 1: TAAGCTACTATGACTAACCTTTCTTTA
DNA 2: TAAAGAAAGGTTAGTCATAGTAGCTTA
With B2, the binding result in data set [2] was “binds”.

B3: BNLF2a ZRE1 (dsDNA)
DNA 1: ACACCTGTCCTCGCTCATCTTTCCACA
DNA 2: TGTGGAAAGATGAGCGAGGACAGGTGT
For the molecule B3, the binding result in data set [2] is listed as “binds”.

B4: BNLF2a ZRE4 (dsDNA)
DNA 1: TCACCTTAACTGGCACACACTCCCTTA
DNA 2: TAAGGGAGTGTGTGCCAGTTAAGGTGA
Consider B4, for which, in data set [2], the binding result is listed as “binds”.

B5: BNLF2a ZRE3 (dsDNA)
DNA 1: CTTTCCATCTTGTGCCAATACACATTT
DNA 2: AAATGTGTATTGGCACAAGATGGAAAG
With B5, in data set [2], the binding result is recorded as “binds”.

B6: BNLF2a ZRE1me (CpG-methylated) (dsDNA)
DNA 1: ACACCTGTCCTCGCTCATCTTTCCACA
DNA 2: TGTGGAAAGATGAGCGAGGACAGGTGT
modifications: 5-methyl-C (printed meC) at C12 of strand 1 and C15 of strand 2
In the case of B6, the binding result in data set [3] is recorded as “binds”.
